From the supplement of paper PMC6755084

B1: minF1; a variant is named by its letters at N, in order (parent)
chain: GAGACCGCAACTGAAAAGTTGTTNNNNAANNNNNGGNTNAATTTCTGCACGTAGAAGCAAAAGGC

Variants of: B1
Test: fraction ligated after 30 min (ligated reads / total reads); higher = more ligase activity
Details: with F1*subA RNA substrate (template-directed ligation), 42 °C
Method in brief: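 Templates from an oligo pool encoding minimized ligase ribozyme variants were amplified by PCR, transcribed with T7, and purified on gels. Gel electrophoresis separated ligated from unligated RNAs, which were then reverse transcribed using barcoded primers and sequenced on a MiSeq, keeping core bases with quality ≥30. For each variant, fraction ligated equals ligated reads divided by total reads.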

In order of falling fraction ligated:
1. ATCGTGGATGT A40G  0.0919
2. ATCGATGGAGT G35T A40G  0.0726
3. ATCATGGATGT A28G A40G  0.0551
4. ATCATGGATGT A40G  0.0479
5. ATCAATGGAGT A28G G35T A40G  0.0474
6. ATCGGGATGTG A29T  0.045
7. ATCAGGATGTG A29T  0.0416
8. ATCAAAGATGT A28G A40G  0.0398
9. ATCAATGGAGT G35T A40G  0.0379
10. ATCGATGGAGT G35T  0.0345
11. ATAGGGATGTG A29T  0.0314
12. ATCGATGATGT A40G  0.0304
13. ATCAAGGATGT A28G A40G  0.0268
14. ATCAATGATGT A28G A40G  0.0266
15. ATGAGGATGTG A29T  0.0247
16. ATGATGGATGT A40G  0.0235
17. ATCAATGGAGT A28G G35T  0.0192
18. ATCAATGATGT A40G  0.0188
19. ATCGAGGATGT A40G  0.0171
20. ATAGTGGATGT A40G  0.0158
21. ATCAATGGAGT G35T  0.0137
22. ATCGATGGTGT A40G  0.0134
23. ATCAAGGATGT A40G  0.0124
24. ATCGATGGAGT A40G  0.00946
25. ATCAGGATGTG A28G  0.00911
26. ATCAATGGTGT A40G  0.00841
27. ATAGATGGTGT A40G  0.00815
28. ATCATGGTGTG  0.00812
29. ATCAAAGGTGT A28G A40G  0.00781
30. ATCAAAGGATG A28G  0.0078
31. ATCAATGGTGT A28G A40G  0.00763
32. ATCATGGATTG A28G  0.00743
33. ATGATGGATTG  0.0074
34. ATCATGGATTG  0.00725
35. ATCAGGATGTG  0.00723
36. ATCGTGATGTG  0.00711
37. ATCAATGGAGT A28G A40G  0.00701
38. ATCAAATGGGT A28G G35T A40G  0.00694
39. ATCGAGATGTG  0.00673
40. ATCAAATGTGT A28G A40G  0.00666
41. ATCGTGGTGTG  0.00665
42. ATCATGGAGTG  0.00635
43. ATCATGGATGT  0.00625
44. ATCGTGGATTG  0.0062
45. ATAGTGGATTG  0.00612
46. ATCAATGGGTG A28G  0.00605
47. ATCAAGGAGTG A28G  0.00604
48. ATCAAATGGGT A28G G35A A40G  0.00585
49. ATCAATGTGTG  0.0057
50. ATCAAGGTGTG  0.00569
51. ATCAATGGAGT  0.00569
52. ATCGTGGATGT  0.00561
53. ATCAAGATGTG A28G  0.00558
54. ATAGTGGATGT  0.0055
55. ATCAAAGATGT A28G  0.00546
56. ATAGATGGTTG  0.00545
57. ATCAATGGAGT A40G  0.00544
58. ATCATGATGTG  0.00541
59. ATCAAAGGAGT A28G G35T A40G  0.00529
60. ATCAAATGGGT A28G A40G  0.00524
61. ATCAGGATGTG A28G A29T  0.00511
62. ATCAAGATGTG  0.00503
63. ATCGAGGTGTG  0.00503
64. ATCGGGATGTG  0.00497
65. ATCAAATAGTG A28G  0.00491
66. ATCATGATGTG A28G  0.00487
67. ATCAAATGGTG A28G  0.00482
68. ATCAATGATGT A28G  0.00479
69. ATCATGGAGTG A28G  0.00478
70. ATAGATGTGTG  0.00472
71. ATAGTGATGTG  0.00472
72. ATCGATGGTGT  0.00463
73. ATCAATATGTG  0.00461
74. ATCAAATGAGT A28G G35T A40G  0.0046
75. ATCATGGATGT A28G  0.00453
76. ATCAATGGGTG  0.0045
77. ATCGATGATGT  0.00439
78. ATCAATGGATG  0.00435
79. ATCGATGGAGT  0.00434
80. ATCAAAGGGTG A28G  0.0042
81. ATCAATGGTTG  0.00416
82. ATCAAAGGAGT A28G A40G  0.00414
83. ATCAAGGATGT  0.00413
84. ATAGATGGGTG  0.00409
85. ATCGAGGATGT  0.004
86. ATCAAATGAGT A28G G35T  0.00393
87. ATCAAGGATGT A28G  0.00393
88. ATCAAATGAGT A28G A40G  0.00391
89. ATCAATGATGT  0.00391
90. ATCAAATGGGT A28G G35A  0.00387
91. ATGAGGATGTG  0.00387
92. ATCGATATGTG  0.00384
93. ATCGAGGAGTG  0.00378
94. ATCAATGGTGT  0.00377
95. ATCAAATATGT A28G  0.00373
96. ATCGATGAGTG  0.00373
97. ATAGATGGATG  0.00358
98. ATGATGATGTG  0.00356
99. ATCAAAATGTG A28G  0.00354
100. ATCAAATATGT A28G A40G  0.00354
101. ATCAAAGTGTG A28G  0.00347
102. ATCAAGGATTG  0.00347
103. ATCGATGGATG  0.00346
104. ATCAATGATTG A28G  0.00338
105. ATCAAATGTTG A28G  0.00332
106. ATCAATGGAGT A28G  0.00328
107. ATCGATGGTTG  0.00328
108. ATCAATGGAGT G35T T38G A40T  0.00324
109. ATCAAAGGAGT A28G G35T  0.00323
110. ATCAAGGTGTG A28G  0.00322
111. ATCGATGTGTG  0.00321
112. ATCAAATGGGT A28G  0.00311
113. ATCGATGGAGT G35T T38G A40T  0.0031
114. ATGATGGTGTG  0.00304
115. ATAGATGGTGT  0.00303
116. ATAGGGATGTG  0.00301
117. ATCAATGAGTG  0.003
118. ATCATGGTGTG A28G  0.00296
119. ATCAATGTGTG A28G  0.00293
120. ATCAAATATTG A28G  0.00289
121. ATCGTGGAGTG  0.00282
122. ATCAATGGATG A28G  0.00279
123. ATCAAAGGAGT A28G  0.00277
124. ATCAAAGAGTG A28G  0.00276
125. ATCAAATTGTG A28G  0.00273
126. ATGATGGATGT  0.00269
127. ATCAAGGAGTG  0.00266
128. ATCAATGGTTG A28G  0.00263
129. ATCAAAGGTTG A28G  0.0026
130. ATCGATGATTG  0.00246
131. ATCAATATGTG A28G  0.00244
132. ATCAAAGGAGT A28G G35T T38G A40T  0.00242
133. ATCAAATGATG A28G  0.00241
134. ATCAATGATTG  0.00237
135. ATCAAATGAGT A28G G35T T38G A40T  0.00229
136. ATCAAATGAGT A28G  0.00227
137. ATCAATGGAGT A28G G35T T38G A40T A41G  0.00208
138. ATCAAATGTGT A28G  0.00203
139. ATCAAAGGTGT A28G  0.00198
140. ATCGAGGATTG  0.00198
141. ATCAATGAGTG A28G  0.00195
142. ATAGTGGTGTG  0.0019
143. ATCAAGGATTG A28G  0.00187
144. ATCAAATGGGT A28G G35T  0.00148
145. ATCAATGGTGT A28G  0.00146
146. ATGATGGAGTG  0.00146
147. ATCAAATGGGT A28G G35T T38G A40T  0.00125
148. ATCAAAGATTG A28G  0.00113
149. ATCAATGGAGT A28G G35T T38G A40T  0.00109
150. ATCGATGGAGT G35T T38G A40T A41G  0.00105
151. ATCAAAGGAGT A28G G35T T38G A40T A41G  0.00104
152. ATCAAATGGGT A28G G35A T38G A40T  0.000933
153. ATCAATGGAGT G35T T38G A40T A41G  0.00079
154. ATAGTGGAGTG  0
155. ATCGATGGGTG  0
